From paper PMC6057269 (2018)

B1: GST-tagged FCHSD2 SH3-2 (aa568-629), wild type [human] / ITSN1 SH3d (aa1076-1138), recombinant [human] (parent complex)
chain 1: SVCFVKALYDYEGQTDDELSFPEGAIIRILNKENQDDDGFWEGEFNGRIGVFPSVLVEELSA
chain 2: PEIAQVIASYTATGPEQLTLAPGQLILIRKKNPGGWWEGELQARGKKRQIGWFPANYVKLLSP
B2: GST-tagged ITSN1 SH3d (aa1076-1138), wild type [human] / FCHSD2 SH3-2 (aa568-629), recombinant [human] (parent complex)
chain 1: B1 chain 2
chain 2: B1 chain 1

Variants of: B1
Experiment: GST pull-down, Coomassie stained gel, band quantification; n = 3 experiments, mean ± SD; parent: 1; read off a plot
chain 1 Y9S showed a ratio to parent of ~0.45.
In the case of chain 1 D16A, the ratio to parent is reported as ~1.1.
With chain 1 F40S the ratio to parent was ~0.3.
Work on chain 1 V55S yielded a ratio to parent of ~0.8.
For chain 1 N46A, the ratio to parent was ~1.2.
Work on chain 1 Y9S, chain 1 F40S yielded a ratio to parent of ~0.15.
With chain 1 V55K, chain 1 L56K the ratio to parent was ~0.1.
For chain 1 D17K, the ratio to parent was ~0.9.

Variants of: B2
Experiment: as above
For chain 1 T11A, the ratio to parent was ~1.1.
For chain 1 I3K, the ratio to parent was ~0.08.
chain 1 I3S gave a ratio to parent of ~0.08.
For chain 1 R48E, the ratio to parent was ~0.4.
With chain 1 R44E the ratio to parent was ~0.08.
For chain 1 R44A, the ratio to parent was ~0.08.
